Reference: paper PMC3786575

Target: USF-1-Flag (UniProt P22415)
Sequence of UniProt P22415 (P22415 whole entry): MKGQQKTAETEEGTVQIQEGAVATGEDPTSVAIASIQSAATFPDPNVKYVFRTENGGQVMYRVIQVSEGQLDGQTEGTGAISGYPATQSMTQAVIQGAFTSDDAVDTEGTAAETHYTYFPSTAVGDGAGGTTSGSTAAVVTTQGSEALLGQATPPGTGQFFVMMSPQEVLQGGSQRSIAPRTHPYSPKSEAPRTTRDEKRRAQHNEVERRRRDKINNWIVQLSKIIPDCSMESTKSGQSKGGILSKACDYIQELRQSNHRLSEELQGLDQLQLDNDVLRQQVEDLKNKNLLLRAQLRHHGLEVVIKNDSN

USF-dependent FAS promoter activation, luciferase reporter (Fig. 3D)	Substance
4 fold	HA-tagged BAF60c S247D (from UniProt Q6STE5 1-483) (natural protein)
4 fold	BAF60c-HA (from UniProt Q6STE5 1-483) (natural protein)
